# Values of other authors in article PMC9583766.
# Target: plasma prekallikrein (PK) (Homo sapiens) (UniProt P03952)
# Chain of UniProt P03952 (P03952 20-638): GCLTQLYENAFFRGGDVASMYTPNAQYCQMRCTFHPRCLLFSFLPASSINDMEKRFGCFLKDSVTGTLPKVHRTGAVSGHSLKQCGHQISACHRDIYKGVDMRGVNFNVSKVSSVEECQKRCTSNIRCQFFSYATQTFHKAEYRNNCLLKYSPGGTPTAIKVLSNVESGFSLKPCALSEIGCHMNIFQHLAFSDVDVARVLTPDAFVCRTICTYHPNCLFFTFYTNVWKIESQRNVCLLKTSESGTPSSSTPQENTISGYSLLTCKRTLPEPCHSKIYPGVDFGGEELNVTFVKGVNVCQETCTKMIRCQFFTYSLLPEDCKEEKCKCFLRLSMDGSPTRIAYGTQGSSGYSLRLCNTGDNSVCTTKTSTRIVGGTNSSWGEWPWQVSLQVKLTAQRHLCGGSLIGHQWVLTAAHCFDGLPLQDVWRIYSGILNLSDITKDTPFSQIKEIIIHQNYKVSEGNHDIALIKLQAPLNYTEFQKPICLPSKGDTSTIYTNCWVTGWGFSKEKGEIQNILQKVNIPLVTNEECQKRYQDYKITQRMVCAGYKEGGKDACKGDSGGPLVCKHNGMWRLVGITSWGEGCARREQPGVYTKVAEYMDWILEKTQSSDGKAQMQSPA
substance,measurement,value
high-molecular-weight kininogen (nHK) (from UniProt P01042),Kd,0.012 µM
